doi:10.1101/2025.10.13.682107, “Oxidative stress sensing by the translation elongation machinery promotes production of detoxifying selenoproteins” (bioRxiv, 2025)

B1: EEF1D, endogenous (natural protein, human (endogenous in HEK293T), UniProt P29692 1-281, looked up)
chain: MATNFLAHEKIWFDKFKYDDAERRFYEQMNGPVAGASRQENGASVILRDIARARENIQKSLAGSSGPGASSGTSGDHGELVVRIASLEVENQSLRGVVQELQQAISKLEARLNVLEKSSPGHRATAPQTQHVSPMRQVEPPAKKPATPAEDDEDDDIDLFGSDNEEEDKEAAQLREERLRQYAEKKAKKPALVAKSSILLDVKPWDDETDMAQLEACVRSIQLDGLVWGASKLVPVGYGIRKLQIQCVVEDDKVGTDLLEEEITKFEEHVQSVDIAAFNKI
notes: EEF1D (guanine nucleotide exchange factor subunit of EEF1H), human, endogenous in HEK293T; source: endogenous, HEK293T lysate
B2: valine tRNA synthase (VARS), endogenous (enzyme, human (endogenous in HEK293T), UniProt P26640 1-1264, looked up)
chain: MSTLYVSPHPDAFPSLRALIAARYGEAGEGPGWGGAHPRICLQPPPTSRTPFPPPRLPALEQGPGGLWVWGATAVAQLLWPAGLGGPGGSRAAVLVQQWVSYADTELIPAACGATLPALGLRSSAQDPQAVLGALGRALSPLEEWLRLHTYLAGEAPTLADLAAVTALLLPFRYVLDPPARRIWNNVTRWFVTCVRQPEFRAVLGEVVLYSGARPLSHQPGPEAPALPKTAAQLKKEAKKREKLEKFQQKQKIQQQQPPPGEKKPKPEKREKRDPGVITYDLPTPPGEKKDVSGPMPDSYSPRYVEAAWYPWWEQQGFFKPEYGRPNVSAANPRGVFMMCIPPPNVTGSLHLGHALTNAIQDSLTRWHRMRGETTLWNPGCDHAGIATQVVVEKKLWREQGLSRHQLGREAFLQEVWKWKEEKGDRIYHQLKKLGSSLDWDRACFTMDPKLSAAVTEAFVRLHEEGIIYRSTRLVNWSCTLNSAISDIEVDKKELTGRTLLSVPGYKEKVEFGVLVSFAYKVQGSDSDEEVVVATTRIETMLGDVAVAVHPKDTRYQHLKGKNVIHPFLSRSLPIVFDEFVDMDFGTGAVKITPAHDQNDYEVGQRHGLEAISIMDSRGALINVPPPFLGLPRFEARKAVLVALKERGLFRGIEDNPMVVPLCNRSKDVVEPLLRPQWYVRCGEMAQAASAAVTRGDLRILPEAHQRTWHAWMDNIREWCISRQLWWGHRIPAYFVTVSDPAVPPGEDPDGRYWVSGRNEAEAREKAAKEFGVSPDKISLQQDEDVLDTWFSSGLFPLSILGWPNQSEDLSVFYPGTLLETGHDILFFWVARMVMLGLKLTGRLPFREVYLHAIVRDAHGRKMSKSLGNVIDPLDVIYGISLQGLHNQLLNSNLDPSEVEKAKEGQKADFPAGIPECGTDALRFGLCAYMSQGRDINLDVNRILGYRHFCNKLWNATKFALRGLGKGFVPSPTSQPGGHESLVDRWIRSRLTEAVRLSNQGFQAYDFPAVTTAQYSFWLYELCDVYLECLKPVLNGVDQVAAECARQTLYTCLDVGLRLLSPFMPFVTEELFQRLPRRMPQAPPSLCVTPYPEPSECSWKDPEAEAALELALSITRAVRSLRADYNLTRIRPDCFLEVADEATGALASAVSGYVQALASAGVVAVLALGAPAPQGCAVALASDRCSIHLQLQGLVDPARELGKLQAKRVEAQRQAQRLRERRAASGYPVKVPLEVQEADEAKLQQTEAELRKVDEAIALFQKML
notes: valine tRNA synthase (VARS), human, endogenous in HEK293T; source: endogenous, HEK293T lysate
B3: EEF1B, endogenous (natural protein, human (endogenous in HEK293T), UniProt P24534 1-225, looked up)
chain: MGFGDLKSPAGLQVLNDYLADKSYIEGYVPSQADVAVFEAVSSPPPADLCHALRWYNHIKSYEKEKASLPGVKKALGKYGPADVEDTTGSGATDSKDDDDIDLFGSDDEEESEEAKRLREERLAQYESKKAKKPALVAKSSILLDVKPWDDETDMAKLEECVRSIQADGLVWGSSKLVPVGYGIKKLQIQCVVEDDKVGTDMLEEQITAFEDYVQSMDVAAFNKI
notes: EEF1B (guanine nucleotide exchange factor subunit of EEF1H), human, endogenous in HEK293T; source: endogenous, HEK293T lysate

Tests used:
[1] = target: endogenously Strep-tagged EEF1G (human (endogenous in HEK293T)) (UniProt P26641); test: mass photometry; EEF1H complex recovered by affinity purification of endogenous strep-tagged EEF1G from HEK293T lysates; stoichiometry predicted from molecular weight of components and Coomassie staining; complex formed in cells and co-purified
Sequence of endogenously Strep-tagged EEF1G (human (endogenous in HEK293T)) (P26641 whole entry): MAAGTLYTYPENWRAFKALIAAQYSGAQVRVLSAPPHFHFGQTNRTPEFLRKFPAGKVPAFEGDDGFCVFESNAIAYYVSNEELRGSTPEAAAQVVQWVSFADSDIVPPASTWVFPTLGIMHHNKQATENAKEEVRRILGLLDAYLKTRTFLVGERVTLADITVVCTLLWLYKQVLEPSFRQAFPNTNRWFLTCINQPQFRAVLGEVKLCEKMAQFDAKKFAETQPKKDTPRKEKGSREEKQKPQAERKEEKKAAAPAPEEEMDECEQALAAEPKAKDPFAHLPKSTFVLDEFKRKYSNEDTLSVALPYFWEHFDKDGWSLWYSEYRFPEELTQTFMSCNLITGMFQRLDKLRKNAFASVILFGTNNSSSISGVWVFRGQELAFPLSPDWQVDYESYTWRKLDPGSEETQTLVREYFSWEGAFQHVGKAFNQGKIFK

[2] = target: EEF1G (eukaryotic elongation factor 1 subunit gamma), endogenous (human (endogenous in HEK293T)) (UniProt P26641); test: mass photometry; EEF1S complex recovered by glutathione-Sepharose from HEK293T lysate and run on SEC (Superdex 200); stoichiometry from the mass (~270 kDa) and Coomassie staining; complex formed in cells and co-purified
Sequence of EEF1G (eukaryotic elongation factor 1 subunit gamma), endogenous (human (endogenous in HEK293T)) (P26641 whole entry): as above

[3] = target: T1, endogenously Strep-tagged EEF1G (human (endogenous in HEK293T), UniProt P26641 1-437); test: mass photometry; EEF1H complex recovered by affinity purification of endogenous strep-tagged EEF1G from HEK293T lysates; stoichiometry predicted from molecular weight of components and Coomassie staining; complex formed in cells and co-purified; conditions: partners not purified
T1 construct: EEF1G, human, endogenous locus of HEK293T edited to carry an internal Twin-Strep tag in the unstructured region between the GST and C-terminal domains; also called strep-EEF1G; source: endogenous locus tagged by CRISPR-Cas9 knock-in, HEK293T; not shown: Twin-Strep, internal (in the unstructured region between the GST and C-terminal domains), kept
T1 sequence (P26641 whole entry, the tested form may be a part): as the sequence (P26641 whole entry) above

[4] = target: T2, EEF1G (eukaryotic elongation factor 1 subunit gamma), endogenous (human (endogenous in HEK293T), UniProt P26641 1-437); test: mass photometry; EEF1S complex recovered by glutathione-Sepharose from HEK293T lysate and run on SEC (Superdex 200); stoichiometry from the mass (~270 kDa) and Coomassie staining; complex formed in cells and co-purified; conditions: partners not purified
T2 construct: EEF1G, human, endogenous untagged protein in HEK293T lysate, recovered on glutathione-Sepharose; source: endogenous, HEK293T lysate
T2 sequence (P26641 whole entry): as above

| Molecule | copies in the EEF1H complex (with six copies of EEF1G) [1] [copies] | stoichiometry N [2] | copies in the EEF1H complex (with six copies of EEF1G) [3] [copies] | stoichiometry N [4] |
| --- | --- | --- | --- | --- |
| EEF1A, endogenous (from UniProt P68104 1-462) (natural protein) | 6 | 1 | – | – |
| B1 | – | – | ~4 | – |
| B2 | – | – | ~2 | – |
| B3 | – | – | ~4 | ~1 |
